B1: 2290-D02 (antibody, V domains shown)
VH: EVQLVESGGGLVQPGGSLRLSCAASGFNISSYWIHWVRQAPGKGLEWMGVITPAAGYTYYADSVKGRFTISADTSKNTAYLQMNSLRAEDTAVYYCARDLGHRYWVGVFDYWGQGTLVTVSS
VL: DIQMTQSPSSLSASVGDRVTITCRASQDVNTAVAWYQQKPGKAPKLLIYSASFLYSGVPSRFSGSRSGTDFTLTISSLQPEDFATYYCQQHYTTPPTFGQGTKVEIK
notes: also called Antibody 18
B2: 2290-D05 (antibody, V domains shown)
VH: B1 VH with S30A, Y32R, M48V, A54S, H102Y, R103G, V108F, F109S
VL: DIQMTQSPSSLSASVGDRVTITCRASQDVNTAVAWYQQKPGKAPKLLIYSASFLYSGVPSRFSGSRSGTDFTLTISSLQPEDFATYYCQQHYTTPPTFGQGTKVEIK
notes: also called Antibody 20
B3: 2291-D07 (antibody, V domains shown)
VH: EVQLVESGGGLVQPGGSLRLSCAASGFNIKDTYIHWVRQAPGKGLEWVGVISPYDGYTEYADSVKGRFTISADTSKNTAYLQMNSLRAEDTAVYYCAHDFYDRYSTYVLDYWGQGTLVTVSS
VL: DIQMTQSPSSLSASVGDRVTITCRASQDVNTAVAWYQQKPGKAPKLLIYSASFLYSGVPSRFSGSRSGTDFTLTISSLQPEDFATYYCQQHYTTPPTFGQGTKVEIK
notes: also called Antibody 26
B4: 2291-F10 (antibody, V domains shown)
VH: B3 VH with K30D, D31P, T32Y, Y33T, V50W, H98R, F100Y, Q114R
VL: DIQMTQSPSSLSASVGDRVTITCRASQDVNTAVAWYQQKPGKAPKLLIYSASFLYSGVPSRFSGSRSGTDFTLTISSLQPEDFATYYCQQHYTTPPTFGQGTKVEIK
notes: also called Antibody 27
B5: 2291-A01 (antibody, V domains shown)
VH: B3 VH with K30D, D31P, T32Y, Y33T, V37A, G49A, V50H, E59D, H98R
VL: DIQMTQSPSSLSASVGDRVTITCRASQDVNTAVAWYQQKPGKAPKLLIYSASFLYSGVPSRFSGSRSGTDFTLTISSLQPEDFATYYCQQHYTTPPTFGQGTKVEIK
notes: also called Antibody 29
B6: 2291-G05 (antibody, V domains shown)
VH: B3 VH with K30A, D31A, T32Y, Y33T, V50W, D55G, H98R, Y101H, S105A, Y107F
VL: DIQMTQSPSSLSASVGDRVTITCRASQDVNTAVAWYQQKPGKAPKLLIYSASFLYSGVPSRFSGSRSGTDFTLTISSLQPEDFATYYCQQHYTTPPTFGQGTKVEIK
notes: also called Antibody 24
B7: 11D6 (antibody, V domains shown)
VH: AVTLDESGGGLQTPGGTLSLVCKASGFTFSSFNMFWVRQAPGEGLEWVAYIRNDGRSTSYGPAVKGRATISRDNGQSTVRLQLNNLRAEDTGTYFCAKTTCVGSGGCIDTWGHGTEVIVSS
VL: ALTQPSSVSANPGETVEITCSGGNSDYGWFQQKSPGSAPVTVIYRNNQRPSDIPSRFSGSGSGSTNTLTITGVQAEDEAIYYCGNVDFTDDVFGAGTTLTVL
notes: Chicken HybriFree-derived antibody; also called Antibody 32
B8: 10F4 (antibody, V domains shown)
VH: AVTLDESGGGLQTPGGALSLVCKASGFTFSGYNMGWVRQAPGKGLEYVAGITYGTGSYTAYGAAVKGRATISRDNGQSTLRLQLNNLRAEDTATYYCARGGGLNSYGCSGANIDAWGHGTEVIVSS
VL: ALTQPSSVSANLGGTVKITCSGGGNYFGSYYYGWYQQKAPGSAPVTVIYNNNNRPSDIPSRFSGSTSGSTSTLTISGVRAEDEAVYFCGGFDSSTDAIFGAGTTLTVL
notes: Chicken HybriFree-derived antibody; also called Antibody 37
B9: 9E12 (antibody, V domains shown)
VH: AVTLDESGGGLQTPGGGLSLVCKASGFTFSDYGLGWMRQAPGKGLEYVARINSAGSGTYYGSAVDGRATISRDNGQSTVRLQLNNLRAEDTGTYYCTRGGGGASIDGWGHGTEVIVSS
VL: B8 VL with L12P, G14E, N25S, F27Y, A39S, V47L, S71G, S76T, F87Y, G90S
notes: Chicken HybriFree-derived antibody; also called Antibody 43
B10: 9A5 (antibody, V domains shown)
VH: AVTLDESGGGLQTPGGAVSLVCKASGFSISDYGMGWMRQAPGKGLQYVARIDHDGRYTDYGAVVKGRATISRDNGQSTVRLQLNNLRAEDTGTYYCTRGGGAASIDTWGHGTEVIVSS
VL: B8 VL with L12P, G14E, F27V, S29G, P44L, V47L, D57N, S76T, G90S
notes: Chicken HybriFree-derived antibody; also called Antibody 42
B11: 10E10 (antibody, V domains shown)
VH: AVTLDESGGGLQTPGGGLSLVCKASGFTFSSYGMGWMRQAPGKGLEFVARINSGGSSYTDYGSAVKGRATISRDDGQSTVRLQLNNLRAEDTGIYYCTRGGGGASIDGWGHGTEVIVSS
VL: B8 VL with L12P, G14E, F27A, A39S, V45L, N51S, T66L, S71G, S76T
notes: Chicken HybriFree-derived antibody; also called Antibody 46
B12: 9H1 (antibody, V domains shown)
VH: AVTLDESGGGLQTPGGALSLVCKGSGFTFSDYGMGWMRQAPGKGLQYVARINSAGSDTNYGSAVKGRATISRDDGQSTVRLQLSSLRAEDTGIYYCTRGGGGASIDGWGHGTEVIVSS
VL: B8 VL with L12P, G14E, N25S, F27Y, A39S, V47L, S71G, S76T, F87Y, G90S
notes: Chicken HybriFree-derived antibody; also called Antibody 44

Numbering of substitutions follows the chain as printed.

The first experiment concerns the target T1, human BCMA-Fc (human, UniProt Q02223 1-54).
T1 construct: Bought from R&D Systems; also called huBCMA-Fc; not shown: Fc part not described
T1 sequence: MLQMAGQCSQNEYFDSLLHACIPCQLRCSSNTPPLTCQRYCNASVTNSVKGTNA
Briefly: SPR Biacore, antibody captured, 25 C. The method, then: (§1) Anti-Fab or anti-Fc polyclonal antibodies were immobilized onto a CM5 chip (GE Life Sciences) using amine coupling chemistry (from Amine Coupling Kit, GE Life Sciences). The immobilization steps were carried out at a flow rate of 25 μL/min in 1×HBS-EP+ buffer (GE Life Sciences; 10× Stock diluted before use). The sensor surfaces were activated for 7 min with a mixture of NHS (0.05 M) and EDC (0.2 M). The anti-Fab or anti-Fc antibodies were injected over all 4 flow cells at a concentration of 25 μg/ml in 10 mM sodium acetate, pH 4.5, for 7 min. Ethanolamine (1 M, pH 8.5) was injected for 7 min to block any remaining activated groups.
(§2) Off-rate and kinetic binding experiments were performed at 25° C. using 1×HBS-EP+ buffer. […] After capturing ligand (antibody) on the anti-Fab or anti-Fc surface, the analyte (human BCMA-Fc, cyno BCMA-Fc, or human BCMA from R&D Systems, custom protein production, or Sigma Aldrich, respectively) was bound for 180 seconds, followed by a 600 second dissociation phase at a flow rate of 50 μL/min. Between each ligand capture and analyte binding cycle, regeneration was carried out using 2 injections of 10 mM glycine pH 2.0 for 30 seconds at 30 μL/min, followed by a 30 second buffer wash step.
(§3) The data was fit with the Biacore T200 Evaluation software, using a 1-1 Langmuir binding model. KD (affinity, nM) was determined as a ratio of the kinetic rate constants calculated from the fits of the association and dissociation phases.
(In general: SPR reads the build-up and loss of mass on a sensor chip optically.)
With B1, binding was put at a Kd of 949 pM; the koff (in general, the first-order rate constant of dissociation) stood at 0.000277 s⁻¹; the kon (in general, the second-order rate constant of association) was 292000 M⁻¹ s⁻¹.
On the same counts, the results for B2 are 937 pM, 0.000446 s⁻¹ and 476000 M⁻¹ s⁻¹.
On the same counts, the results for B3 are 948 pM, 0.000414 s⁻¹ and 437000 M⁻¹ s⁻¹.
In the same order, the values of B4 are 178 pM, 9.65e-05 s⁻¹ and 541000 M⁻¹ s⁻¹.
For the molecule B5, binding was put at a Kd of 43.8 pM, the off-rate constant (koff) came to 2.82e-05 s⁻¹ and the kon stood at 644000 M⁻¹ s⁻¹.
On the same counts, the results for B6 are 962 pM, 0.000423 s⁻¹ and 440000 M⁻¹ s⁻¹.

In a further experiment the target is cynomolgus BCMA on cells (cynomolgus monkey, UniProt Q02223 1-184 (human entry)). As to the kind of experiment: FACS, 293T-cynoBCMA cells. The method, then: (§4) Variants for which sufficient protein was purified in secondary screening were tested in a fluorescence-activated cell sorting (FACS) cell-binding assay. […] 6-12 point dilutions of anti-BCMA variants starting from concentrations of about 100-200 nM antibody were dispensed into each well using a BioMekFX (Beckman Coulter). Cells were then incubated on ice for 1 hr, washed with FACS buffer and incubated for 1 hr on ice with […] FACS buffer containing 2.5 μg/ml Alexa647-conjugated Goat Anti-Human IgG dispensed using BioMekFX (Beckman Coulter). Cells were then washed 2× with FACS buffer and fixed for 10 minutes in […] PBS with 2% paraformaldehyde (PFA) prior to fluorescence detection. Samples were acquired using a Beckton Dickinson LSRII FACS. Geometric Mean Fluorescence Intensity of BCMA antibody binding was analyzed using FlowJo® software (Tree Star, Inc.).
cynomolgus BCMA on cells, sequence (Q02223 other isoform, or with tags, fused parts or gaps): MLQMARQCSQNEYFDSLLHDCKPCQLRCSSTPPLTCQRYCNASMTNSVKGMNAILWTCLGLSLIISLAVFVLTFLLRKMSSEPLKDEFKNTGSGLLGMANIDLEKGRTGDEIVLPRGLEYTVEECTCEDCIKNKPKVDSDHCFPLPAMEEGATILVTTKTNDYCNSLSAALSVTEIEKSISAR
For orientation: A flow cytometer gives signals particle by particle.
On to B1, for which the Bmax came out at 75800 MFI and the affinity, expressed as Kd, was 3500 pM.
In the same order, the values of B2 are 57600 MFI and 1700 pM.
In the same order, the values of B7 are 27700 MFI and 12200 pM.
On the same counts, the results for B8 are 12800 MFI and 5940 pM.
With B9, the Bmax was 13200 MFI and the affinity, expressed as Kd, was 340 pM.
In the same order, the values of B10 are 18200 MFI and 640 pM.
For B11, the Bmax stood at 4540 MFI and the Kd (commonly the constant that tells how readily two partners part at equilibrium) amounted to 18900 pM.
B12: the Bmax was 11400 MFI and the Kd came to 390 pM.
In the same order, the values of B3 are 67900 MFI and 500 pM.
On the same counts, the results for B4 are 66500 MFI and 700 pM.
In the same order, the values of B5 are 67200 MFI and 1000 pM.
In the case of B6, the Bmax came out at 62700 MFI and the Kd stood at 1000 pM.

The target of another experiment is T2, rat BCMA on cells (rat).
T2 construct: whole, on cells
Briefly: FACS, 293T-ratBCMA cells.
B8 showed a Bmax of 410 MFI and a Kd of 5470 pM.
In the same order, the values of B9 are 4690 MFI and 2610 pM.
In the same order, the values of B10 are 2780 MFI and 7130 pM.
In turn, B11 displayed a Bmax of 906 MFI and a Kd of 6830 pM.
In the same order, the values of B12 are 3450 MFI and 1320 pM.

In the next experiment the target is T3, cyno BCMA-Fc (cynomolgus monkey, UniProt Q02223 1-54 (human entry)).
T3 construct: Custom protein production; also called cynomolgus BCMA-Fc; not shown: Fc part not described
Briefly: ELISA, coated cynoBCMA-Fc.
As for B1, the Bmax amounted to 3.91e+06 and the EC50 (in general, the concentration needed to bring the measured effect to its halfway point) stood at 200 pM.
On the same counts, the results for B2 are 3.61e+06 and 200 pM.
B3: the Bmax came out at 3.94e+06 and the EC50 worked out at 30 pM.
With B4, the Bmax amounted to 3.43e+06 and the EC50 was 60 pM.
In turn, B5 had a Bmax of 4.77e+06 and an EC50 of 330 pM.
On the same counts, the results for B6 are 3.38e+06 and 90 pM.

Another experiment addresses T1, human BCMA-Fc. As to the kind of experiment: ELISA, coated huBCMA-Fc. For orientation: In an ELISA, binding on a coated surface is turned into a signal by an enzyme label.
In turn, B1 had a Bmax of 4.54e+06 and an EC50 of 300 pM.
In the same order, the values of B2 are 3.94e+06 and 300 pM.
Molecule B3 gave a Bmax of 4.08e+06 and an EC50 of 30 pM.
B4 returned a Bmax of 3.72e+06 and an EC50 of 100 pM.
Molecule B5 displayed a Bmax of 5e+06 and a concentration giving a half-maximal response (EC50) of 390 pM.
In the same order, the values of B6 are 3.91e+06 and 130 pM.

The next experiment has as its target T4, human BCMA on cells (human, UniProt Q02223 1-184).
T4 construct: also called hBCMA; BCMA on NCI-H929, ARP-1, OPM-2, U266B1, MM.1S, RPMI-8226 cells
T4 sequence: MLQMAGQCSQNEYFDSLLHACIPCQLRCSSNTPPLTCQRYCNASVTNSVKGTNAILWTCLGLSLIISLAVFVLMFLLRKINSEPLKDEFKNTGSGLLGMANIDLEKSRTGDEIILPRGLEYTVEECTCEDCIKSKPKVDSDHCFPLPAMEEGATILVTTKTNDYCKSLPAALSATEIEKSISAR
As to the kind of experiment: FACS, NCI-H929 cells. The method, then:
as §4
With B1, the Bmax came out at 33600 MFI and the Kd was found to be 19200 pM.
In the same order, the values of B2 are 21800 MFI and 4600 pM.
Turning to B7, the Bmax was 26400 MFI and binding was characterised by a dissociation constant (Kd) of 47600 pM.
On the same counts, the results for B8 are 18700 MFI and 10500 pM.
On the same counts, the results for B9 are 8140 MFI and 520 pM.
The molecule B10 displayed a Bmax of 19700 MFI and a Kd of 1010 pM.
In the case of B11, the Bmax is 3440 MFI and the Kd was 4670 pM.
In the same order, the values of B12 are 6160 MFI and 1000 pM.
On the same counts, the results for B3 are 28700 MFI and 3800 pM.
On the same counts, the results for B4 are 33800 MFI and 5400 pM.
Molecule B5 had a Bmax of 32500 MFI and a Kd of 4900 pM.
On the same counts, the results for B6 are 23200 MFI and 1400 pM.

Another experiment addresses T1, human BCMA-Fc. As to the kind of experiment: SPR Biacore, human BCMA-Fc kinetics. The method, then:
as §1, §2, §3
B7 returned a Kd of 313 pM, a koff of 0.000318 s⁻¹ and a kon of 1.02e+06 M⁻¹ s⁻¹.

For the origin of these results see US20220362394A1 (SUTRO BIOPHARMA, published 2022).
